According to the DeepSol protein solubility set:

Assay: soluble on expression in E. coli; label from the status in PepcDB or PDB records

| Sequence | soluble on expression in E. coli |
| --- | --- |
| MGSDKIHHHHHHMSDITHTGEHQALVVGATGIIGSAILHRLGAAEGWTAIGLSRSRRVAEGRARMLEVDLLDPQDCARKLGALNRITHIFYAAYQARPSRAEEVAPNVQMLRNVVDAVSGRARGLKKIVLITGAKFYGIQWGRVKTPMKETDARQLPPNFYYDQEDFLRDAQRQADWHWCNLIPPFVSGYSVGNPMNLVMAIGVFASLSRELNLPLRFPGLPGAWSALQQIADAEQIAAAAHWAATSPAANNEAFNVTNGDPIRWENFWPAVAGHFGMRLEAPKTLPLGRLMADNEAAWARMVERYRLQAASIAKLVDWNWADYMFRMEYDVLMETGKIRRAGFQDCVDTTERFLARFRQLQQQQIIPR | not soluble |
| MGSDKIHHHHHHMSLDRVDWPHATFSTPVKRIFDTQTTLDFQSSLAIHRIKYHLHKYTTLISHCSDPDPHATASSIAMVNGLMGVLDKLAHLIDETPPLPGPRRYGNLACREWHHKLDERLPQWLQEMLPSEYHEVVPELQYYLGNSFGSSTRLDYGTGHELSFMATVAALDMLGMFPHMRGADVFLLFNKYYTIMRRLILTYTLEPAGSHGVWGLDDHFHLVYILGSSQWQLLDAQAPLQPREILDKSLVREYKDTNFYCQGINFINEVKMGPFEEHSPILYDIAVTVPRWSKVCKGLLKMYSVEVLKKFPVVQHFWFGTGFFPWVNIQNGTDLPVFEEKEEESIEQANAGSPGREQTSTRFPTSTSMPPPGVPPSGNNINYLLSHQNQSHRNQTSFSRDRLRR | not soluble |
| MSSEEDEIAELSKDTPPEKKRKISESGASSSSFIPESTSEESLSLKSKKSGSRKRILTASSSTNSIAMKSSASWIQEKDTPINKSDEEKSIAESLLIANFSNEQLDRYTAFKRSRFNRRIIKNVITRTTGQIPSDPLALAVAGLTKMFIGDLVEEAVELRGALNEQDRPVQPYHITRAFDKLLAEGKLWPPYGAKY | not soluble |
| SERLTSPPRLMIVSDLDETMVDHHKDPENLALLRFNSLWEDAYRHDSLLVFSTGRAQTMYKKLRKEKPLLTPDVIITSVGTEIAYGNSMVPDDNWVEILNKKWDRGIVQEETSKFPELTLQGETEQRPHKLSFNIDKSKVKAVTKELSPRLEKRGVDVKFIFSGGNAFDVLAKGGGKGQALAYLLKKLKTEGKLPINTLACGDSGNDTELFTIPNVYGVMVSNAQEELLEWYAENAKDNANIIHASERCAGGITQAIGHFKLGPNLSPRDVSDFLECKADNVNPGHEVVKFFLFYERWRRGEVENCTTYTSSLKASCHPSGVFVHPSGAEKSLRDTIDELGKYYGDKKGKKFRVWTDQVLATDTTPGTWIVKLDKWEQTGDERKCCTTTVKFTSKEGEGFVWEHVQQIWSEETEIKDDSNWII | not soluble |
| VRRLLIVHHTPSPHMQEMFEAVVSGATDPEIEGVEVVRRPALTVSPIEMLEADGYLLGTPANLGYISGALKHAFDVCYYLCLDTTRGRSFGAYIHGNEGTEGAERAVDAITTGLGWVQAAETVVVMGKPSKADIEACWNLGATVAAQLMG | soluble |
| MGSDKIHHHHHHMGSLEQRRLEQDKRPDDVRDEYDRDEARLIHSAAFRRLQSKTQVLGLGESDFYRTRLTHSMEVAQIGRGIVQYLSKNKKFAEYHEHLPNTSLITAICLAHDIGHPPFGHGGEVALNYCMREHGGFEGNGQTLRILGKLDKYTGEHGLNPTRRMLLGILKYPVAYSELVNEKAYEQVPDKNAPYWLFEARMQKPPKCYHDCDQEIVDFIFDGFAREELAKFTQTEQPIDKDEPEKPLHKKSLYKSLDCTIMNLADNISYSLHDFEDALSLGMITQRHWREHFEGKEALFNDLAKQLVRNDLNFDLITVNLFHKESHCRKEAIGSLVNLMITNAIIEKNQSGCENPLLSLEVKLAPQIEKLRQHIFDLVCEQVIFDENVQQLEFKGQKLVIELFQTLAKDPNRFLPKPTRERLKKAGEGLEGEHKKSAQLRVICDFVSGMTDDYATKFYEKLFTPSKGSIFDRL | not soluble |
| SNTGPYYFVKNLPLHELITPEFISTFIKKGKLILSLDKDTYEETGLQGHPSQFSGRKIMKFIVSIDLMELSLNLDSKKYERISWSFKEKKPLKFDFLLAWHKTGSEESTMMSYFSKYQIQEHQPKVALSTLRDLQCPVLQSSELEGTPEVSCRALELFDWLGAVFSNVDLNNEPNNFISTYCCPEPSTVVAKAYLCTITGFILPEKICLLLEHLCHYFDEPKLAPWVTLSVQGFADSPVSWEKK | soluble |
| MSRFSITYKHDFYGGVEGEVTGGSALLCCPQEDIKSFLSEPVYSRLCASAWALTIECPSDPRTPSGTPGPLGTVPWRWGSLGMGGPLLPTAPTPRERERRGGQPAQRWSAEEGQEGSADGEAEATQELILAVVQEGAEGQCQGQGRKLLLQRGAHDPVTVHRAFKKEVGLGQVQLIPKGGTGVLHPGAGLKLHTHLQLVTGFVVIRRMHACLAQRYCSQPVVQCVFPS | not soluble |
| MAPAEILNGKEISAQIRARLKNQVTQLKEQVPGFTPRLAILQVGNRDDSNLYINVKLKAAEEIGIKATHIKLPRTTTESEVMKYITSLNEDSTVHGFLVQLPLDSENSINTEEVINAIAPEKDVDGLTSINAGRLARGDLNDCFIPCTPKGCLELIKETGVPIAGRHAVVVGRSKIVGAPMHDLLLWNNATVTTCHSKTAHLDEEVNKGDILVVATGQPEMVKGEWIKPGAIVIDCGINYVPDDKKPNGRKVVGDVAYDEAKERASFITPVPGGVGPMTVAMLMQSTVESAKRFLEKFKPGKWMIQ | soluble |
| SKGIKSEEVKINNIAIEINKATKRDPGNCNLDNHIKPSPDSSLDNQMKLSCESAPDQNFSICSASEVETNPLENTAAASTLLSQAKIDEDRTFPGSAPNQQHSVLSDEASINRKNRDVPPNHSQLKHDSHLEITIPKSLKLKDSEKVDEKQLVIDAGHKRFGAVSCNICGMLYTASNPEDETQHLLFHNQFISAVKYVVLLINHHECGSEEEFITSLFLSMSNFRYTQRSLLPY | soluble |
| MAHHHHHHMYSFSLASNRKRAIPNASGLAPPAAAHVIRAPSELKPHQRLPQPLNEAADDAADDDVMQVSNARFGWHPAHAHAPTSSLYSVRPPAEQLVHVHNLNAYAGLRDAADWSVEVQREREQKKRRALAQHEAVKLEEQRHRDAHEEQTKKEMQQRRLERQQERAELREADAMADFQERNTQFLQNQLWLMQLGSYVKQTDAQHKAHVREELHKSSSSRNHLDVDHASTTCWTGTKARGHHASAPSTEIDLRQAAEATEEAYVRLSLAYRNEAQRSRAAAAILHPGELTGKGRSRLQAIRPAGAFASPTSPSAPSQAATAVSTPSHSPAASPAPAAVTEAAAKVSAPFHTAPPMFTHTSTENMGQHANAIPYTYIPEYFDAPSAAATTGKVPAPHRAGESPEQQETGAVMPLPLSPVPVSRDVTGALQARYYPWALYSAATVRKSMLPPLPPPREASLPVRRWGAAELRDSMFGHCILEDGTIQDQCERKKVCAAYLSYTTLPRDNATATSNAAVEPQEPLHFGKRMDIWL | not soluble |
| MAHHHHHHMSNQGDFNTYIYIPVKCNESIKKRCELCFDVLFKLIEMKHKECYNKSKEKNLLCHNDINKGEIHKHIYYQLYKLNEHIKENNIEKDFKEPLHITISGSLNLKRYMINSFINKIKEELKNQNSFYLFFRNEVDLYKSQKNTKYFCSYTVKEDQQELYLNTLKEKINKILNEFDLKDTHLNRIYHLSLAYTNINLDVLLEKENKKCVEEETFFWPNINELILNKDIKENRLDDLYIYVNCIHIRIGYKLYKIPFKSFDDNLNVSDSYDSYMSSTDE | not soluble |
| MSLKAQRYASVLTLDNLTGRLVVVGDIHGCLAQLQGMLRAVSFKQGSDTLVAVGDLVNKGPDSFGVVRLLKRLGAHSVLGNHDVKLLKLVKKIREKGPLNERDTKSSLAPFALTVPVDVEVYLSQLPHIIRIPAHNVIMTHGGLHPQRPLDCQYIDEVTTLRNLIEKEQKAGGVTLVATPETKDGGVPWASLWRGPETVVFGHDSRRGLQEQYRPLAIGLDSGCVYGGRLSAAVFPGGHIVSVSGWRREAKEGHHHHHH | soluble |
| MARQTMNPSIRYLIGVDGGGTGTRIRLHASDGTPLAMAEGGASALSQGIAKSWQAVLSTLEAAFQQAGLPAAPASACAIGLGLSGVHNRQWAGEFESQAPGFARLSLATDGYTTLLGAHGGQPGIIVALGTGSIGEALYPDGSHREAGGWGYPSGDEASGAWLGQRAAQLTQMALDGRHSHSPLTRAVLDFVGGDWQAMMAWNGRATPAQFARLAPLVLSAARVDPEADALLRQAGEDAWAIARALDPQDELPVALCGGLGQALRDWLPPGFRQRLVAPQGDSAQGALLLLQRPSTRLEHHHHHH | soluble |
